# Source: patent US20220017622A1 (Pfizer, published 2022)
# Residue numbers refer to the chain shown, from its start.
# T1: human B7-H4 on cells (human, UniProt Q7Z7D3 25-282)
# T1 sequence (looked up): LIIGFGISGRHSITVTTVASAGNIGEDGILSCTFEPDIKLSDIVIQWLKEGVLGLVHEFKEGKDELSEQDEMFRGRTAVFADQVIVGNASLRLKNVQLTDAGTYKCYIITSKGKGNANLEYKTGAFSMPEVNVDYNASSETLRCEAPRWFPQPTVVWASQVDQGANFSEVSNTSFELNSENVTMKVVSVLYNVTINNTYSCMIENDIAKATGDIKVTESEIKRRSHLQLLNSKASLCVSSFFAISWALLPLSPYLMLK
# B1: B7-H4xCD3 bispecific antibody 1130 (bispecific antibody, IgG2)
# heavy 1: EVQLVESGGGLVQPGGSLRLSCAASGGSFSGYYWNWIRQPPGKGLEWIGEINHSGSATYNPSLKSRVTISVDTAKNSLYLQMNSLRAEDTAVYYCARGLYNWNVDHWGQGTLVTVSSASTKGPSVFPLAPCSRSTSESTAALGCLVKDYFPEPVTVSWNSGALTSGVHTFPAVLQSSGLYSLSSVVTVPSSNFGTQTYTCNVDHKPSNTKVDKTVERKCEVECPECPAPPVAGPSVFLFPPKPKDTLMISRTPEVTCVVVAVSHEDPEVQFNWYVDGVEVHNAKTKPREEQFNSTFRVVSVLTVVHQDWLNGKEYKCKVSNKGLPSSIEKTISKTKGQPREPQVYTLPPSREEMTKNQVSLTCEVKGFYPSDIAVEWESNGQPENNYKTTPPMLDSDGSFFLYSKLTVDKSRWQQGNVFSCSVMHEALHNHYTQKSLSLSPG
# light 1: DIQMTQSPSSLSASVGDRVTITCRASQGIRNDLGWYQQKPGKAPKRLIYAASSLQSGVPSRFSGSGSGTDFTLTISSLQPEDFATYYCLQHNAYPRTFGGGTKVEIKRTVAAPSVFIFPPSDEQLKSGTASVVCLLNNFYPREAKVQWKVDNALQSGNSQESVTEQDSKDSTYSLSSTLTLSKADYEKHKVYACEVTHQGLSSPVTKSFNRGEC
# heavy 2: EVQLVESGGGLVQPGGSLRLSCAASGFTFSDYYMTWVRQAPGKGLEWVAFIRNQARGYTSDHNPSVKGRFTISRDNAKNSLYLQMNSLRAEDTAVYYCARDRPSYYVLDYWGQGTTVTVSSASTKGPSVFPLAPCSRSTSESTAALGCLVKDYFPEPVTVSWNSGALTSGVHTFPAVLQSSGLYSLSSVVTVPSSNFGTQTYTCNVDHKPSNTKVDKTVERKCRVRCPRCPAPPVAGPSVFLFPPKPKDTLMISRTPEVTCVVVAVSHEDPEVQFNWYVDGVEVHNAKTKPREEQFNSTFRVVSVLTVVHQDWLNGKEYKCKVSNKGLPSSIEKTISKTKGQPREPQVYTLPPSREEMTKNQVSLTCLVKGFYPSDIAVEWESNGQPENNYKTTPPMLDSDGSFFLYSRLTVDKSRWQQGNVFSCSVMHEALHNHYTQKSLSLSPGK
# light 2: DIQMTQSPSSLSASVGDRVTITCTSSQSLFNVRSQKNYLAWYQQKPGKAPKLLIYWASTRESGVPSRFSGSGSGTDFTLTISSLQPEDFATYYCKQSYDLFTFGGGTKVEIKRTVAAPSVFIFPPSDEQLKSGTASVVCLLNNFYPREAKVQWKVDNALQSGNSQESVTEQDSKDSTYSLSSTLTLSKADYEKHKVYACEVTHQGLSSPVTKSFNRGEC
# B2: B7-H4xCD3 bispecific antibody 0974 (bispecific antibody, IgG2)
# heavy 1: B1 heavy 1 with N52D, S54Q, A57T, T58K
# light 1: B1 light 1
# heavy 2: B1 heavy 2
# light 2: B1 light 2
# B3: B7-H4xCD3 bispecific antibody 0982 (bispecific antibody, IgG2)
# heavy 1: B1 heavy 1 with A24V, N52D, S54Q, A57T, T58K, G98E
# light 1: B1 light 1 with N92S, A93S
# heavy 2: B1 heavy 2
# light 2: B1 light 2
# B4: B7-H4xCD3 bispecific antibody 1166 (bispecific antibody, IgG2)
# heavy 1: EVQLLESGGGLVQPGGSLRLSCAASGFTFSSYAMSWVRQAPGKGLEWVSAISGGGGSTYYADSVKGRFTISRDNSKNTLYLQMNSLRAEDTAVYYCARDIQWYGESTLFDYWGQGTLVTVSSASTKGPSVFPLAPCSRSTSESTAALGCLVKDYFPEPVTVSWNSGALTSGVHTFPAVLQSSGLYSLSSVVTVPSSNFGTQTYTCNVDHKPSNTKVDKTVERKCEVECPECPAPPVAGPSVFLFPPKPKDTLMISRTPEVTCVVVAVSHEDPEVQFNWYVDGVEVHNAKTKPREEQFNSTFRVVSVLTVVHQDWLNGKEYKCKVSNKGLPSSIEKTISKTKGQPREPQVYTLPPSREEMTKNQVSLTCEVKGFYPSDIAVEWESNGQPENNYKTTPPMLDSDGSFFLYSKLTVDKSRWQQGNVFSCSVMHEALHNHYTQKSLSLSPG
# light 1: DIQMTQSPSSLSASVGDRVTITCRASQSTRSWLAWYQQKPGKAPKLLIYKASSLEGGVPSRFSGSGSGTDFTLTISSLQPEDFATYYCQQYGSYSRTFGQGTKVEIKRTVAAPSVFIFPPSDEQLKSGTASVVCLLNNFYPREAKVQWKVDNALQSGNSQESVTEQDSKDSTYSLSSTLTLSKADYEKHKVYACEVTHQGLSSPVTKSFNRGEC
# heavy 2: B1 heavy 2
# light 2: B1 light 2
# B5: B7-H4xCD3 bispecific antibody 0090 (bispecific antibody, human IgG1, kappa)
# heavy 1: QVQLQQWGAGLLKPSETLSLTCAVYGGSFSGYYWNWIRQPPGKGLEWIGEINHSGSTKYNPSLKSRVTISGDTSKNQFSLKLNSVTAADTAVYYCVRGLYNWNVDSWGQGTLVTVSSASTKGPSVFPLAPSSKSTSGGTAALGCLVKDYFPEPVTVSWNSGALTSGVHTFPAVLQSSGLYSLSSVVTVPSSSLGTQTYICNVNHKPSNTKVDKKVEPKSCDKTHTCPPCPAPEAAGAPSVFLFPPKPKDTLMISRTPEVTCVVVDVSHEDPEVKFNWYVDGVEVHNAKTKPREEQYNSTYRVVSVLTVLHQDWLNGKEYKCKVSNKALPAPIEKTISKAKGQPREPQVYTLPPSREEMTKNQVSLTCEVKGFYPSDIAVEWESNGQPENNYKTTPPVLDSDGSFFLYSKLTVDKSRWQQGNVFSCSVMHEALHNHYTQKSLSLSPG
# light 1: B1 light 1 with A50V, D70E, A93S, R96Y, G100Q, V104L
# heavy 2: EVQLVESGGGLVQPGGSLRLSCAASGFTFSDYYMTWVRQAPGKGLEWVAFIRNQARGYTSDHNPSVKGRFTISRDNAKNSLYLQMNSLRAEDTAVYYCARDRPSYYVLDYWGQGTTVTVSSASTKGPSVFPLAPSSKSTSGGTAALGCLVKDYFPEPVTVSWNSGALTSGVHTFPAVLQSSGLYSLSSVVTVPSSSLGTQTYICNVNHKPSNTKVDKKVEPKSCDKTHTCPPCPAPEAAGAPSVFLFPPKPKDTLMISRTPEVTCVVVDVSHEDPEVKFNWYVDGVEVHNAKTKPREEQYNSTYRVVSVLTVLHQDWLNGKEYKCKVSNKALPAPIEKTISKAKGQPREPQVYTLPPSREEMTKNQVSLTCLVKGFYPSDIAVEWESNGQPENNYKTTPPVLDSDGSFFLYSRLTVDKSRWQQGNVFSCSVMHEALHNHYTQKSLSLSPG
# light 2: B1 light 2
# B6: B7-H4xCD3 bispecific antibody 1135 (bispecific antibody, IgG2)
# heavy 1: B1 heavy 1 with I37V, P40A
# light 1: B1 light 1
# heavy 2: B1 heavy 2
# light 2: B1 light 2
# B7: B7-H4xCD3 bispecific antibody 0978 (bispecific antibody, IgG2)
# heavy 1: B1 heavy 1 with N52D, S54Q, A57T, T58K, G98E
# light 1: B1 light 1 with N92S, A93S
# heavy 2: B1 heavy 2
# light 2: B1 light 2
# B8: B7-H4xCD3 bispecific antibody 0980 (bispecific antibody, IgG2)
# heavy 1: B1 heavy 1 with N52D, S54Q, A57T, T58K
# light 1: B1 light 1 with N92S, A93S
# heavy 2: B1 heavy 2
# light 2: B1 light 2
# B9: B7-H4xCD3 bispecific antibody 0976 (bispecific antibody, IgG2)
# heavy 1: B1 heavy 1 with A24V, N52D, S54Q, A57T, T58K, G98E
# light 1: B1 light 1
# heavy 2: B1 heavy 2
# light 2: B1 light 2
# Target: T1, human B7-H4 on cells
# Test: cell-based or functional assay
# Wherever T cell mediated tumor cell killing, OVCAR3-Luc is given: unit not given here.
Binder,"T cell mediated tumor cell killing EC50, HCC1954-Luc [nM]","T cell mediated tumor cell killing, OVCAR3-Luc"
B1,73700,810
B2,764,
B3,2650,
B4,15500,800
B5,68,
B6,1200,420
B7,320,
B8,390,
B9,2170,
